T1: CD19 expressed on cells (Daudi, Raji, K562-CD19) (human, UniProt P15391 20-556)
T1 construct: whole, on cells
T1 sequence (looked up): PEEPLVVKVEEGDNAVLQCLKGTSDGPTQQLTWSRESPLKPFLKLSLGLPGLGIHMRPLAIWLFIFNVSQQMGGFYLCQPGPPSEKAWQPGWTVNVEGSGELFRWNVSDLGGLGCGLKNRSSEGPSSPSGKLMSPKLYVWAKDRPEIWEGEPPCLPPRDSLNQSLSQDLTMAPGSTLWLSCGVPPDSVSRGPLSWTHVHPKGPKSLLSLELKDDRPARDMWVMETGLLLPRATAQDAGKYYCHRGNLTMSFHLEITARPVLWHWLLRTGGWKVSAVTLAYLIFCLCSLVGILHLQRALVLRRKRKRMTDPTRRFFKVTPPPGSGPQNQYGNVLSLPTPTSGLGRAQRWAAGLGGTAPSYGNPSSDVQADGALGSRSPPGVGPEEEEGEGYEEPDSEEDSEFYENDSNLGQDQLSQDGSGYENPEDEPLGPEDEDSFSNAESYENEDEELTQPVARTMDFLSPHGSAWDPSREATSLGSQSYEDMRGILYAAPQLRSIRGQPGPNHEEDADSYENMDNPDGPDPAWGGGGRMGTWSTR

T2: recombinant B7H3-His protein (UniProt Q5ZPR3 29-461, limits assumed)
T2 construct: not shown: His tag
T2 sequence (looked up): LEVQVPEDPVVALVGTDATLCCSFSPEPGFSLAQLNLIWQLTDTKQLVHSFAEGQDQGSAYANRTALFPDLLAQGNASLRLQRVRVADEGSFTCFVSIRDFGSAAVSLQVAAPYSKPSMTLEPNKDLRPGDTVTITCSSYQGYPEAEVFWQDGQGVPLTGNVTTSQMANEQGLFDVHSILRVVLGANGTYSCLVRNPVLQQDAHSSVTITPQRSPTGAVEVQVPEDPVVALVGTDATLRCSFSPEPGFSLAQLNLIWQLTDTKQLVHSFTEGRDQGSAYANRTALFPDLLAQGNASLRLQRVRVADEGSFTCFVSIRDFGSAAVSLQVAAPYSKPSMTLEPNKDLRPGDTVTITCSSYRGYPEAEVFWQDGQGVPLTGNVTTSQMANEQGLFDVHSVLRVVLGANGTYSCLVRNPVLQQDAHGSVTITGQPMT

T3: B7H3 expressed on cells (OV-90, OVCAR3) (human, UniProt Q5ZPR3 29-534)
T3 construct: whole, on cells; also called B7H3+ OV90 tumor cells; B7H3+ OVCAR3 cells
T3 sequence (looked up): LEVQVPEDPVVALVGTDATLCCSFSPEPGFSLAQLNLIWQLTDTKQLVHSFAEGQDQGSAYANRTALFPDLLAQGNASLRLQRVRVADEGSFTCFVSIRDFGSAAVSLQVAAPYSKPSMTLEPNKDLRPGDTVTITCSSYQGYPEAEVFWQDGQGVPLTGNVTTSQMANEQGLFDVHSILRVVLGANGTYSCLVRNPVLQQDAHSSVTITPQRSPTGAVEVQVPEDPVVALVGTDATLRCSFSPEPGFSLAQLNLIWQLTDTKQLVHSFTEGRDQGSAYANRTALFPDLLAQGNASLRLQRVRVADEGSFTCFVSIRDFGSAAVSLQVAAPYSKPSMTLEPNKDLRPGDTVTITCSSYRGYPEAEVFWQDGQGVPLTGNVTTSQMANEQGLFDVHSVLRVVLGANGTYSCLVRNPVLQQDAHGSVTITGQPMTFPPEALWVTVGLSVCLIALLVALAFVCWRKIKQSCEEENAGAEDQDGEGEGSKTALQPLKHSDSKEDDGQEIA

B1: BTN2A1/3A1-Fc-CD19scFv heterodimeric protein (Fc fusion)
chain 1: QFIVVGPTDPILATVGENTTLRCHLSPEKNAEDMEVRWFRSQFSPAVFVYKGGRERTEEQMEEYRGRTTFVSKDISRGSVALVIHNITAQENGTYRCYFQEGRSYDEAILHLVVAGLGSKPLISMRGHEDGGIRLECISRGWYPKPLTVWRDPYGGVAPALKEVSMPDADGLFMVTTAVIIRDKSVRNMSCSINNTLLGQKKESVIFIPESFMPSVSPCAGSGSRKGGKRGSKYGPPCPPCPAPEFLGGPSVFLFPPKPKDQLMISRTPEVTCVVVDVSQEDPEVQFNWYVDGVEVHNAKTKPREEQFNSTYRVVSVLTVLHQDWLSGKEYKCKVSSKGLPSSIEKTISNATGQPREPQVYTLPPSQEEMTKNQVSLTCLVKGFYPSDIAVEWESNGQPENNYKTTPPVLDSDGSFFLYSRLTVDKSRWQEGNVFSCSVLHEALHNHYTQKSLSLSLGKDEGGEDGSDIQMTQTTSSLSASLGDRVTISCRASQDISKYLNWYQQKPDGTVKLLIYHTSRLHSGVPSRFSGSGSGTDYSLTISNLEQEDIATYFCQQGNTLPYTFGGGTKLEITGGGSGGGSGGGSEVKLQESGPGLVAPSQSLSVTCTVSGVSLPDYGVSWIRQPPRKGLEWLGVIWGSETTYYNSALKSRLTIIKDNSKSQVFLKMNSLQTDDTAIYYCAKHYYYGGSYAMDYWGQGTSVTVSS
chain 2: not shown
notes: Secreted from Expi293 or CHO cells and purified; also called BTN2A1/3A1-Fc-CD19scFv3; BTN2A1/3A1-Fc-19scFv
B2: BTN2A1/3A1-Fc-B7H3scFv heterodimeric protein (Fc fusion)
chain 1: QFIVVGPTDPILATVGENTTLRCHLSPEKNAEDMEVRWFRSQFSPAVFVYKGGRERTEEQMEEYRGRTTFVSKDISRGSVALVIHNITAQENGTYRCYFQEGRSYDEAILHLVVAGLGSKPLISMRGHEDGGIRLECISRGWYPKPLTVWRDPYGGVAPALKEVSMPDADGLFMVTTAVIIRDKSVRNMSCSINNTLLGQKKESVIFIPESFMPSVSPCAGSGSRKGGKRGSKYGPPCPPCPAPEFLGGPSVFLFPPKPKDQLMISRTPEVTCVVVDVSQEDPEVQFNWYVDGVEVHNAKTKPREEQFNSTYRVVSVLTVLHQDWLSGKEYKCKVSSKGLPSSIEKTISNATGQPREPQVYTLPPSQEEMTKNQVSLTCLVKGFYPSDIAVEWESNGQPENNYKTTPPVLDSDGSFFLYSRLTVDKSRWQEGNVFSCSVLHEALHNHYTQKSLSLSLGKDEGGEDGSDIQMTQSPSFLSASVGDRVTITCKASQNVDTNVAWYQQKPGKAPKALIYSASYRYSGVPSRFSGSGSGTDFTLTISSLQPEDFAEYFCQQYNNYPFTFGQGTKLEIKSSGGGGSGGGGSGGGGSEVQLVESGGGLVQPGGSLRLSCAASGFTFSSFGMHWVRQAPGKGLEWVAYISSGSGTIYYADTVKGRFTISRDNAKNSLYLQMNSLRAEDTAVYYCARHGYRYEGFDYWGQGTTVTVSS
chain 2: not shown
notes: Produced by transient co-transfection of ExpiCHO cells; also called BTN2A1/3A1-Fc-B7H3scFv/B7H3scFv

What was measured:
[1] = molecular target: T4, recombinant FAP-His protein (UniProt Q12884 26-760); experiment: MSD plate assay, plate-bound FAP-His, detection with anti-BTN3A1 antibody
T4 construct: not shown: His tag

[2] = molecular target: T1, CD19 expressed on cells (Daudi, Raji, …); experiment: flow cytometry on Daudi cells
[3] = molecular target: T2, recombinant B7H3-His protein; experiment: MSD plate assay, plate-bound B7H3-His, detection with anti-BTN3A1 antibody
Description: Briefly, recombinant B7H3-His protein was coated on a plate. […] Binding was detected using SULFO-TAG conjugated anti-mouse antibody.

[4] = molecular target: T3, B7H3 expressed on cells (OV-90, OVCAR3); experiment: flow cytometry on OV-90 cells
Description: (§1) Binding was detected using an AF647 conjugated anti-Fc reagent with flow cytometry.

[5] = molecular target: T1, CD19 expressed on cells (Daudi, Raji, …); experiment: flow cytometry on RAJI cells (B7H3-negative, CD19-expressing), AF647 anti-Fc detection
Description: as §1

T4 sequence (Q12884 26-760 limits assumed): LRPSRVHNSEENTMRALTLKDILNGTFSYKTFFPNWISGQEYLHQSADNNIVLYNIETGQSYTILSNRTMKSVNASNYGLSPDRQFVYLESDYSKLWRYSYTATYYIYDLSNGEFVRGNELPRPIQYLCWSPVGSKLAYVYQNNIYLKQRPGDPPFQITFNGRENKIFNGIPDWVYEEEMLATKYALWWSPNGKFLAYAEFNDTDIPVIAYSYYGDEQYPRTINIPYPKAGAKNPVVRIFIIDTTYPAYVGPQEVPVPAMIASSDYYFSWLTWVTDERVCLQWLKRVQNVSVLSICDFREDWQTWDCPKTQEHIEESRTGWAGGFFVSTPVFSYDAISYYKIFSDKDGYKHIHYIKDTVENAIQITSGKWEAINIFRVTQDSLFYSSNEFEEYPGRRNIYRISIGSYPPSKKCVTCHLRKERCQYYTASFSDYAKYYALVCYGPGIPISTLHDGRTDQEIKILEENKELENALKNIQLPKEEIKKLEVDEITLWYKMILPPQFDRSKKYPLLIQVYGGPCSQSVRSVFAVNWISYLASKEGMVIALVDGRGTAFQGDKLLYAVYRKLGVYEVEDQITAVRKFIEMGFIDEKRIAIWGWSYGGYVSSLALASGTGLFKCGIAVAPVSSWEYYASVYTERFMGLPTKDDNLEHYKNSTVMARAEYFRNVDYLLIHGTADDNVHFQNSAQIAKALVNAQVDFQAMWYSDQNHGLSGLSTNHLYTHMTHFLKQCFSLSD

Binder | binding result [1] | binding result [2] | binding result [3] | binding result [4] | binding result [5]
B1 | no binding | binds | no binding | – | –
B2 | – | – | – | binds | no binding

From patent US20240148828A1 (SHATTUCK LABS, published 2024)
